This experiment concerns the target AjFER-D129A/E132A mutant (Apostichopus japonicus). The experiment in a line: crystal structure; M3 at approx. 15 mg/mL in 25 mM Tris-HCl, pH 8.0, 150 mM NaCl; crystals from 0.05 M cadmium sulfate hydrate, 0.1 M HEPES, pH 7.5, 1.0 M sodium acetate trihydrate, 18 °C; assembly of subunits into the cage.

A word on the stoichiometry N: it is a count of units in the complex or per binding partner.

Regarding AjFER-D129A/E132A mutant, the stoichiometry N turned out to be 24.
